Data taken from US5648214, “High-affinity oligonucleotide ligands to the tachykinin substance P” (University Research Corporation).

Tests used:
Substance P (SP) [1] = molecular target: T1, Substance P (SP) (UniProt P20366); conditions: equilibrium dialysis rough estimate at 20 uM RNA, fraction bound 0.017
T1 sequence: RPKPQQFFGLM

Substance P (SP) [2] = molecular target: T2, Substance P (SP) (UniProt P20366); assay: high affinity class 3 ligand; single-point equilibrium dialysis, Kd value only in figure; conditions: protein: synthetic; tags: synthetic peptide, C-terminal amide; Sigma; 3H-SP from NEN
T2 chain: RPKPQQFFGLM
Experimental: Equilibrium dialysis experiments were performed with a Spectra/Por® (Spectrum; Houston, Tex.) equilibrium dialyzer, Spectra/Por® (Spectrum; Houston, Tex.) microcell dialysis chambers (200-µl chamber volumes), and 12000–14000 MWCO dialysis membranes (Spectrum; Houston, Tex.). These membranes allow passage of SP but not 107-nt RNAs. Sample volumes were 200 µl on each side of the membrane (i.e., 200 µl per chamber). All experiments were at room temperature in 1× SP binding buffer. RNAs (unlabeled) were denatured prior to re-equilibration in binding buffer as described above for Experiment B. For binding curves (FIG. 4), RNA concentrations between 50 nM and 20 µM were utilized. Single point K_d estimates for individual Experiment B ligands were performed with 200 nM or 1 µM RNA. […] Equilibrium dialysis initiated with ^3H-SP on one side of the membrane and in the absence of RNA was performed to determine the length of time required to attain equilibrium (~2.5 hours for Spectra/Por®-2 membranes); dialysis times for binding measurements were at least one hour longer than this determined time. Following equilibration, samples were withdrawn from the dialysis chambers, added to scintillation fluid, and counted.

Row | Molecule | Kd (Substance P (SP) [1]) | binding result (Substance P (SP) [2])
1 | GGGAGCUCAGAAUAAACGCUCAANNNNNNNNNNNNNNNNNNNNNNNNNNNNNNNNNNNNNNNNNNNNNNNNNNNNNNNNNNNNUUCGACAUGAGGCCCGGAUCCGGC [unselected 60N RNA pool] | 1.2 mM | –
2 | ligand B32 (ssRNA) RNA: GGGAGCUCAGAAUAAACGCUCAAAAAGGCACUGACCACCCUCAGGAAGAAUAACCGCGGUCACCCGCAUCCGAGUCUAUCAAUUUCGACAUGAGGCCCGGAUCCGGC | – | binds
